Reference: US20050159352A1, “Use of monocarboxylate transporter protein for thyroid hormone transport” (priority 2002, published 2005)

Substrate: N[C@@H](Cc1ccc(Oc2cc(I)c(O)c(I)c2)c(I)c1)C(=O)O
Experiment: cells, lysate or membranes
Settings: other: net MCT8 transport, Michaelis-Menten analysis
Experimental: Apparent Km values were calculated by fitting the plot of uptake rate (v) versus ligand concentration (5) to the Michaelis Menten equation: v=Vmax/(1+Km/S), wherein Vmax is the maximum uptake rate, and Km the Michaelis constant. Calculations were performed using the Slide Write Plus program version 5.01 (Advanced Graphics Software).

B1: MCT8 (Rattus norvegicus; G227D/I169T/S199P/T171I) (protein)
chain: MALPSPASEEAEGPCQEANQEYQEPVCSPVPEPEPEPEPEPEPEPEPVPVPPPEPQPEPEPQPLPDPAPLPVLGFEAEPVQEPEPTPTVETRGTARGFQPPEGGFGWIVVFAATWCNGSIFGIHNSVGILYSMLLEEEKEKNRQVEFQAAWVGALAMGMIFFCSPIVSTFIDRLGCRITATTGAAVAFIGLHTSSFTSPLSLRYFTYGILFGCGCSFAFQPSLVILDHYFQRRLGLANGVVSAGSSIFSMSFPFLIKMLGDRIKLAQTFQVLSTFMFVLTLLSLTYRPLLPSSQDTPSKRGAHTLRQRFLVQFRKYFNMRVFRQRTYRIWAFGIAAAALGYFVPYVHLMKYVEDKFKEIKETWVLLVCIGATSGLGRLVSGHISDSIPGLKKIYLQVLSFLLLGLMSMMIPLCRDFGGLIVVCLFLGLCDGFFITIMAPIAFELVGPMQASQAIGYLLGMMALPMIAGPPIAGLLRNCFGNYHVAFYFAGVPPIIGAVILFFVPLMHQRMFKKEQRESSKDKMLSHDPDPNGELLPGSPTPEEPI
  Km: 2.2 µM
